{ppp} = triphosphate Bounds are passed on as bounds.

Series [1] can be described thus: in vitro. The settings on record: human, HepG2-hNTCP cells (HepG2-C3A-hNTCP).
Method: (§3) HepG2-NTCP Cells (10A and 10C), dHepaRG (10B and 10D), and PHH (10E) were treated with increasing doses of F7 or poly-U/UC PAMP for 72 hours. Cell viability was determined concurrently by measuring ATP content, with values normalized to mock-treated cells. Graph represents the mean of triplicated samples in each of 3 independent experiments, with error bars showing standard deviation.ns=non-significant.
(§4) To determine the values of 90% of maximal Inhibitory concentration (IC90) and half-maximal Inhibitory concentration (IC50), as well as the cytotoxic concentration, CC50, of F7 and poly-U/UC, PAMP, two different cell lines were used, HepG2-hNTCP and dHepaRG cells.
(§5) Cytotoxicity assays: Cytotoxicity was evaluated from cultures of HepG2-C3A -hNTCP and dHepaRG cells using CellTiter-Glo as described (Edwards, T. C., et al. (2019). Inhibition of HBV replication by N-hydroxvisoquinolinedione and N-hydroxypyridinedinone ribonuclease H inhibitors. Antiviral research 164, 70-80). […] Cytotoxicity of each was measured with the ATP content as a measure of cell viability using the CellTiter-Glo™ reagent (Promega) per manufacturer's instructions. The plates were read using a luminescence plate reader (Berthold) and the relative luminescence unit (RLU) data generated from each well was calculated as percent signal compared to the untreated control. […]
Series [2] deals with dHepaRG cells. The series is described as follows: Cytotoxicity, cellular ATP content (CellTiter-Glo), dHepaRG. The conditions noted are these: 72 hours (FIG. 10D), 23.49 nM = 800 ng/ml.
Method: as §3, §4, §5
For series [3], the system named is HBV cccDNA. The series is described as follows: cccDNA levels in HBV-infected primary human hepatocytes (Southern blot). It is filed as cell-based, HBV (Genotype D). The conditions noted are these: PHH, HBV 200 Geq/cell, single treatment at 1 dpi, harvested 3 dpi. As for the experimental part: (§1) FIGS. 7A-7C illustrate suppression of cccDNA in primary human hepatocytes. (7A) PHH were cultured alone or were treated with 100 ng/ml X-RNA (X100), or 50 ng/ml (P50), 100 ng/ml (P100) or 200 ng/ml (P200) poly-U/UC PAMP or were infected with SenV (control) and harvested 24 and 72 hours later. The cell lysates were analyzed by immunoblot for p-IRF3 (S386 phosphorylated, active IRF3), IRF3 (total IRF3), IFIT1, and Actin (control) using respective antibodies. (7B) PHH cultures were cultured alone or were treated with 100 ng/ml X-RNA (X100), or 100 ng/ml (P100) or 200 ng/ml (P200) poly-U/UC PAMP or were infected with SenV (control) and harvested 24 and 72 later. Cells were harvested, RNA extracted and analyzed by RT-qPCR to measure the expression levels of the indicated innate immune genes normalized to the level of GAPDH expression. Values are shown on the heat map as mean fold induction over nontreated cells from three independent experiments. (7C) PHH cultures were inoculated with HBV at moi of 200 Geq/cell. […] Three days later the cells were harvested, DNA isolated by isolated Hirt extraction, and analyzed by Southern blot using a HBV-specific probe. […]
(§2) PHH cultures were treated over a poly-U/UC PAMP dose-response and assessed innate immune activation. […]

The subject of series [4] is IRF3. Nature of the series: Innate immune activation in primary human hepatocytes (immunoblot, RT-qPCR). The class given is cell-based. The settings on record: PHH, 24 and 72 hours. As for the experimental part:
as §1, §2

For the molecule `O=C(Nc1ccc2nc(NC(=O)c3ccc4ccccc4c3)sc2c1)c1ccccc1` [F7, N-(6-benzamido-1,3-benzothiazol-2-yl)naphthalene-2-carboxamide], the CC50 at 72 h in series [1] is over 40 µM.

B1: poly-U/UC PAMP: ~100 nt PAMP motif from the HCV genome comprising 5′ppp and the poly U/UC region, recognized by RIG-I; formulated in liposome (nucleic acid)
chain: GGCCAUCCUGUUUUUUUCCCUUUUUUUUUUUCUUUUUUUUUUUUUUUUUUUUUUUUUUUUUUUUUUCUCCUUUUUUUUUCCUCUUUUUUUCCUUUUCUUUCCUUU
modifications: RNA, 5' {ppp}, backbone and methylation of C not given here; formulated in liposome
notes: ~100 nt PAMP motif from the HCV genome comprising 5′ppp and the poly U/UC region, recognized by RIG-I; formulated in liposome
In series [2], B1 had a CC50 of over 0.0235 µM. The cccDNA levels entry in series [3] was “suppressed cccDNA levels in the infected PHH to levels similar to CsA treatment”. Further, the “innate immune gene expression (RT-qPCR)” value in series [4] is recorded as “robustly induced innate immune gene expression”. Moreover, the “IRF3 activation (phosphoserine 386 IRF3) and IFIT1 expression” value in series [4] (poly-U/UC PAMP 50-200 ng/ml, X-RNA 100 ng/ml) is “induced IRF3 activation”.

Source of the values: patent US20220241314A1, “COMPOSITIONS AND METHODS FOR TREATMENT OF HEPATITIS B VIRUS INFECTION” (priority 2019, published 2022).
